Measurements taken from article PMC12204516, “Structural basis for higher-order DNA binding by a bacterial transcriptional regulator” (PLOS Genetics, 2025).
Where “and” joins values, the source holds several entries; their conditions need not be identical. Equal values may be shown once.

B3: RES^Pp toxin with N-terminal His6-tag (RES^Pp_(NHis6)), of the Xre-RES^Pp_(NHis6) complex (natural protein, Pseudomonas putida KT2440, UniProt Q88K57 1-145, looked up)
chain: MILWRISAYADLSGTGGLRVSGRWHQAGRPVVYAATSPPGAMLEVLVHLEIDPEDFPTTMRLLRIELPDTVSQAQLPALQPGWSAQPELTRTLGNRFLDDCSALLLPVPSAIMPSTTNYLFNPRHPQAQSAKIQVEDFTPDSRLF
notes: RES-domain NADase toxin encoded by res^Pp of the xre-res locus, Pseudomonas putida KT2440; residues 1-145 built in PDB 9R35; the 13 N-terminal residues from the tag are not seen in the model; also called RES_(His6); RES^Pp_(His6); not shown: His6, N-terminal, kept

What was measured:
[1] = target: B3; experiment: SEC-MALS; Superose 6 Increase 10/300, 20-40 ug per sample, 20 mM HEPES pH 7.5, 150 mM KCl, 5 mM MgCl2, 3 mM BME; conditions: both partners purified
[2] = target: B3; experiment: mass photometry; conditions: both partners purified
mass photometry = target: the molecule itself; experiment: mass photometry
[3] = target: T1, Xre^Pp antitoxin with a N-terminal His6-tag (Xre_(NHis6)), of the Xre_(NHis6)-RES^Pp complex (Pseudomonas putida KT2440, UniProt Q88K58 11-159); experiment: SEC; conditions: both partners purified
T1 construct: also called Xre_(His6); source: E. coli BL21(DE3), pETDuet::xre_(NHis6)-res^Pp, purified with RES (HisTrap FF, Source 15Q, Superdex 200 Increase); not shown: His6, N-terminal, kept
T1 sequence: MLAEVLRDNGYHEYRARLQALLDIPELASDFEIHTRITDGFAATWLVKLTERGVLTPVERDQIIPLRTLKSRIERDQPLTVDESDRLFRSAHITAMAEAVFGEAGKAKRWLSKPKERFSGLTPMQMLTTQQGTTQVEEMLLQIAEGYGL

[4] = target: the molecule itself; experiment: SEC-MALS; Superose 6 Increase 10/300, 20-40 ug per sample, 20 mM HEPES pH 7.5, 150 mM KCl, 5 mM MgCl2, 3 mM BME

B1: Xre^Pp antitoxin, untagged, co-expressed and co-purified with RES^Pp_(NHis6) (Xre-RES^Pp_(NHis6) complex) (natural protein, Pseudomonas putida KT2440, UniProt Q88K58 11-159, looked up)
chain: MLAEVLRDNGYHEYRARLQALLDIPELASDFEIHTRITDGFAATWLVKLTERGVLTPVERDQIIPLRTLKSRIERDQPLTVDESDRLFRSAHITAMAEAVFGEAGKAKRWLSKPKERFSGLTPMQMLTTQQGTTQVEEMLLQIAEGYGL
notes: Xre antitoxin (N-terminal HTH domain, C-terminal DUF2384) encoded by xre^Pp of the xre-res locus, Pseudomonas putida KT2440; residues 1-149 built in PDB 9R35 (complete in chain B and others); also called Xre antitoxin
In the case of B1, the “stoichiometry N” value [1] is reported as 2 Xre per RES and the “stoichiometry N” value [2] is reported as ~2 Xre per RES and ~1.5 Xre per RES and ~1 Xre per RES.

B2: RES^Pp toxin, untagged, co-expressed and co-purified with Xre_(NHis6) (Xre_(NHis6)-RES^Pp complex) (natural protein, Pseudomonas putida KT2440)
chain: MILWRISAYADLSGTGGLRVSGRWHQAGRPVVYAATSPPGAMLEVLVHLEIDPEDFPTTMRLLRIELPDTVSQAQLPALQPGWSAQPELTRTLGNRFLDDCSALLLPVPSAIMPSTTNYLFNPRHPQAQSAKIQVEDFTPDSRLF
notes: also called RES toxin
In the case of B2, the binding result (mass photometry) is reported as “binds” and the “stoichiometry N” value [3] is reported as 1 RES per Xre.

B3: binds [4].
